From publication PMC11871066, “Structure-based discovery of hydrocarbon-stapled paxillin peptides that block FAK scaffolding in cancer” (Nature Communications, 2025) come the findings set out here.

What all share (assay): SPR
Experiment [1] deals with T1, Paxillin LD2 peptide (141-…-153).
T1 chain: NLSELDRLLLELN
The conditions noted are these: chain shown with the change, right panel, peptide concentration not given.

Experiment [2] deals with T2, Stapled peptide 1907, P49023.
T2 chain: NL
The note with it: chain shown with the change; right panel; peptide concentration not given.

Experiment [3] concerns the target T3, Peptide 2013, unstapled version of 1907, P49023.
T3 chain: NL
The note with it: chain shown with the change; right panel; peptide concentration not given.

B1: Biotinylated AviTag FAK FAT protein, Q05397 I936E; L994E (protein)
chain: MAAAYLDPNLNHTPNSSTKTHLGTGMERSPGAMERVLKVFHYFESNSEPTTWASIIRHGDATDVRGIIQKIVDSHKVKHVACYGFRLSHLRSEEVHWLHVDMGVSSVREKYELAHPPEEWKYELRIRYLPKGFLNQFTEDKPTLNFFYQQVKSDYMLEIADQVDQEIALKLGCLEIRRSYWEMRGNALEKKSNYEVLEKDVGLKRFFPKSLLDSVKAKTLRKLIQQTFRQFANLNREESILKFFEILSPVYRFDKECFKCALGSSWIISVELAIGPEEGISYLTDKGCNPTHLADFTQVQTIQYSNSEDKDRKGMLQLKIAGAPEPLTVTAPSLTIAENMADLIDGYCRLVNGTSQSFIIRPQKEGERALPSIPKLANSEKQGMRTHAVSVSETDDYAEIIDEEDTYTMPSTRDYEIQRERIELGRCIGEGQFGDVHQGIYMSPENPALAVAIKTCKNCTSDSVREKFLQEALTMRQFDHPHIVKLIGVITENPVWIIMELCTLGELRSFLQVRKYSLDLASLILYAYQLSTALAYLESKRFVHRDIAARNVLVSSNDCVKLGDFGLSRYMEDSTYYKASKGKLPIKWMAPESINFRRFTSASDVWMFGVCMWEILMHGVKPFQGVKNNDVIGRIENGERLPMPPNCPPTLYSLMTKCWAYDPSRRPRFTELKAQLSTILEEEKAQQEERMRMESRRQATVSWDSGGSDEAPPKPSRPGYPSPRSSEGFYPSPQHMVQTNHYQVSGYPGSHGITAMAGSIYPGQASLLDQTDSWNHRPQEIAMWQPNVEDSTVLDLRGIGQVLPTHLMEERLIRQQQEMEEDQRWLEKEERFLKPDVRLSRGSIDREDGSLQGPIGNQHIYQPVGKPDPAAPPKKPPRPGAPGHLGSLASLSSPADSYNEGVKLQPQEISPPPTANLDRSNDKVYENVTGLVKAVEEMSSKIQPAPPEEYVPMVKEVGLALRTLLATVDETIPLLPASTHREIEMAQKLLNSDEGELINKMKLAQQYVMTSLQQEYKKQMLTAAHALAVDAKNLLDVIDQARLKMLGQTRPH
In the case of B1, the ratio to parent is 4 in experiment [1], 238 in experiment [2] and 33 in experiment [3]. Besides, the response in experiment [1] (plateau of the sensorgram near the end of injection (about 75 s), parent: est. 58, read off a plot) came to 14 RU.
